Experimental data taken from patent publication US6569419B2, “Methods for promoting production of myelin by Schwann cells” (ZymoGenetics, Inc., priority 2000, dated 2003).

How the values were obtained:
[1] = tested on: primary rat Schwann cells; experiment: Induction of protein zero expression in Schwann cells (Western blot); format: cell-based; conditions: N2 medium + 1 μM progesterone
Method: Primary Schwann cells were prepared as described above using 1-day old CD rat neonates. Schwann cells were grown in DMEM, 10% fetal bovine serum (FBS), plus bovine pituitary extract (PEX) at 20 μg/ml and Forskolin at 2μM. The cells were weaned down to a low serum medium (“Li” medium with 1% FBS added to it). Li medium was comprised of DMEM/F12, 10 μg/ml tranferrin, 5 μg/ml insulin, 2 nM progesterone, 2 μM Forskolin, 20 μg/ml PEX, and 20 ng/ml Heregulin-beta-1 (R & D Systems).
The Schwann cells were grown to confluency in the low serum growth medium on poly-L-lysine-coated 10 cm tissue culture dishes. The cell medium was changed to N2 medium+1 μM progesterone with either Forskolin (Calbiochem) (10 μM and 25 μM) or 100 ng/ml of human Zcyto7. Control medium was Schwann cells in N2+1 μM progesterone for the whole time. Cells were harvested and placed in lysis buffer (125 mM Tris HCl, pH 7.0, 15% sucrose, 4% SDS, 10 mM EDTA, plus added Roche Complete-EDTA-free, protease inhibitor cocktail).
Protein concentrations of cell lysates were determined by Pierce BCA protein assay (Pierce Chemical Co., Rockford, Ill.). Forty micrograms of each cell lysate sample was run on a 4-12% Tris-Glycine gel (Novex) at 125 V for 1 hour 30 minutes, and transferred onto a PVDF membrane in a Hoeffer unit a 550 mAmps for 1 hour. Mouse monoclonal antibody to protein zero was used at 1:1000 dilution (1 μg/am final concentration) to probe the blot. A Vectastain biotin/streptavidin-HRP 2nd antibody system was used for amplication. The blot was developed with Pierce SuperSignal West Pico chemiluminescent substrate and scanned on a Boehringer-Mannheim Lumi-Imager.

[2] = tested on: DRG-Schwann cell co-cultures; experiment: Production of myelin (MBP immunofluorescence signal density) in DRG-Schwann cell co-cultures; format: cell-based, rat; conditions: DRG-Schwann cell co-culture, 3.5 weeks
Method: Dissociated neuronal cultures from normal rats were established as described by Kleitman et al., Tissue culture methods for the study of myelination, in Culturing Nerve Cells, Banker and Goslin, Eds, pp. 338-378(MIT Press, Cambridge, Mass., 1992). Briefly, DRG were dissected out from the rats, treated with 0.25% trypsin, mechanically dissociated, washed, and resuspended in L15 medium with 10% fetal calf serum. The neurons were plated onto 12-mm glass coverslips coated with ammoniated rat tail collagen (Biomedical Technologies, Inc.) for microscopic evaluation. Starting one day following the dissection, cultures were treated over a 2-week period with three cycles of 5-fluorodeoxyuridine and uridine (both at 10 μM) in standard medium to assure a pure neuronal population. Standard medium consisted of minimum essential medium (MEM) supplemented with 10% FBS, 2 mM glutamine, 0.4% glucose, and 50 ng/m β-nerve growth factor (β-NGB).
Myelinating co-cultures were established by seeding the purified neurons with rat primary Schwann cells as described Einheber, et al., id.
After establishing the myelinating co-cultures, Schwann cells were allowed to proliferate for one week attached to the neurons. The medium was then changed to 15% and 50 μg/ml ascorbate was added to promote basal lamina formation and to initiate myelination. The effect of the Zcyto7 was evaluated for 3.5 weeks in the presence of ascorbate, with the medium changed every two days. Cultures were then fixed in 3.7% formaldehyde for 10 minutes and made permeable in 100% methanol for 15 minutes at −20° C. Following with PBS having 3% BSA, the samples were incubated with mouse anti-MBP antibody (Boehringer-Mannheim) overnight, washed and incubated with Cy3-labeled anti-mouse IgG. Samples were washed, mounted in VECTASHIELD and examined by epifluorescence with a Zeiss AXIOSKOP microscope.
Myelin production was quantitatively and qualitatively evaluated, and myelin density was determined for each of the five replicates per condition. Six representative regions in each sample were captured using a low-level light COHUE digital camera, and the density of fluorescent signal determined using the National Institutes of Health (NIH) Scion Image. The mean and standard deviation of myelin density was calculated for each group and converted to a percentage by dividing by the density seen in the appropriate control culture. Morphometric measurements were carried out using double blind analysis.
Solution A258F was chosen on the basis of the results of experiment 1 was evaluated in experiment 2 for myelin formation in DRG-Schwann co-cultures. […]

primary Schwann cells = experiment: MBP induction in pure Schwann cell cultures (Western blot, densitometry); format: cell-based, rat; conditions: for Mean MBP induction (as percent of progesterone induction): mean ± SD; for MBP accumulation (in words): in the absence of progesterone pretreatment
Method: Primary Schwann cell cultures and dorsal root ganglia (DRG)-Schwann cell co-cultures were established. Rat primary Schwann cells were isolated as described by Einheber et al., J. Cell Biol. 123:1223-1236 (1994). Schwann cells were grown in 100 mm poly-L-lysine coated plates in Dulbecco's modified Eagles medium (DMEM) supplemented with 10% fetal bovine serum (FBS), pituitary extract (1 mg/ml) and 10 μM forskolin; up to 80-90% confluency.
The effect of Zcyto7 was tested in pure Schwann cell culture and in a co-culture of DRG and Schwann cells. Primary Schwann cells were grown to 80-90% confluency in 100 mm plates as described above. 12 h before treatment media was changed to 10 ml of N2 (defined medium) with or without 1 μM progesterone. The Zcyto7 solutions were added as 1.1 ml of 10×solution in N2 media, and cells were incubated for 48 hours (h). Cells were washed once with Hanks balanced salt solution (HBSS). The cell suspension was frozen on dry ice, thawed, pelleted and resuspended in 100 μl of lysis buffer, 125 mM tris (hydroxymethyl) aminomethane HCl (Tris HCl) pH7.0, 15% sucrose, 4% sodium dodecyl sulfate (SDS), 10 mM ethylenediaminetetraacetic acid (EDTA). Lysates were boiled for 5 minutes (min) on a water bath and cooled on ice. The protein concentration was determined using 4 μl in a BioRad BCA assay. Each sample was then supplemented with dithiothreitol (DTT) to a final concentration of 10 mM phenylmethylsulfonyl fluoride (PMSF)—to 2 mM, pepstatin and leupeptin—to 10 μg/ml.
60 μg of protein from each sample were separated on 4-12% Tris-Glycin NOVEX gels at 125 V constant for 1.5 h. Each gel contained vehicle control, vehicle supplemented with progesterone control, and randomly chosen samples from treatment groups. Transfer to poly (vinylidine difluoride) (PVFD) membrane was carried out according to the NOVEX electrotransfer protocol, at 25 V, for 40 min. Membranes were rinsed with tris buffered saline (TBS) for 3 min, and blocked with TBS/0.1% TWEEN-20/2% BSA for 1 h. Membranes were then incubated with 1:1000 dilution of anti-MBP mouse monoclonal IgG (Boehringer, Mannheim) in TBS/0.1% TWEEN-20, 0.5% BSA overnight, at 4° C. After washing 4 times for 30 min with TBS/0.1% TWEEN-20, membranes were incubated with anti-mouse horseradish peroxidase conjugate (1:20,000 dilution in TBS/0.1% TWEEN-20, incubated with SUPERSIGNAL chemiluminescent HRP substrate (Pierce Chemical Co., Rockford, Ill.) and exposed to Kodak X-Ray film for 15-20 min.
Density of myelin basic protein (MBP) bands was measured on LYNX Densitometer (Applied imaging) with ILLUMA System and expressed as percent progesterone-induced control MBP.
In experiment 1, the effect of the 4 different solutions of Zcyto7 on MBP accumulation was evaluated in pure Schwann cell cultures, with and without progesterone pretreatment. Solution A275F was evaluated in experiment 1 at 1 ng/ml, 10 ng/ml, 100 ng/ml and 1 μg/ml.
Four controls were included in each experiment: test vehicle alone, vehicle supplemented with progesterone, vehicle supplemented with IL-17, and vehicle supplemented with progesterone and IL-17 [See J. Immunol, 150:5445-5456 (1993)]. Three replicates were set up per each condition.

[3] = 1 ng/ml, without progesterone, pure Schwann cells, 48 h
[4] = 10 ng/ml, without progesterone, pure Schwann cells, 48 h
[5] = 100 ng/ml, without progesterone, pure Schwann cells, 48 h
[6] = 1 μg/ml, without progesterone, pure Schwann cells, 48 h
[7] = Prog + 1 ng/ml, pure Schwann cells, 48 h
[8] = Prog + 10 ng/ml, pure Schwann cells, 48 h
[9] = Prog + 100 ng/ml, pure Schwann cells, 48 h
[10] = Prog + 1 μg/ml, pure Schwann cells, 48 h

Molecule: C=C[C@@]1(C)CC(=O)[C@]2(O)[C@@]3(C)[C@@H](O)CCC(C)(C)[C@@H]3[C@H](O)[C@H](OC(C)=O)[C@@]2(C)O1 [Forskolin]
- Relative percentage of P zero protein (media control = 100%) ([1]; 10 μM): 199%
- Relative percentage of P zero protein (media control = 100%) ([1]; 25 μM): 30%

Molecule: IL-17: Interleukin-17; solution at 50 μg/ml of PBS, pH 7.0; control in the experiments
- MBP Signal Density (mean ± SD) ([2]; Ascorbic acid (AA) + 10 ng/ml): 11.65 ± 0.78
- Mean MBP induction (as percent of progesterone induction) (primary Schwann cells; Prog + IL-17 control, in column A258 F): 199.30 ± 23.21% of progesterone induction
- Mean MBP induction (as percent of progesterone induction) (primary Schwann cells; Prog + IL-17 control, in column A275 F): 214.50 ± 103.80% of progesterone induction
- Mean MBP induction (as percent of progesterone induction) (primary Schwann cells; Prog + IL-17 control, in column A311 F): 180.60 ± 123.80% of progesterone induction

B1: A275 F: Solution of murine Zcyto7 expressed in BHK cells, 1 mg/ml of PBS at pH 6.0 (protein, UniProt Q9QXT6 23-180, looked up)
Interleukin-17B: RNTKGKRKGQGRPSPLAPGPHQVPLDLVSRVKPYARMEEYERNLGEMVAQLRNSSEPAKKKCEVNLQLWLSNKRSLSPWGYSINHDPSRIPADLPEARCLCLGCVNPFTMQEDRSMVSVPVFSQVPVRRRLCPQPPRPGPCRQRVVMETIAVGCTCIF
- Mean MBP induction (as percent of progesterone induction) (primary Schwann cells; [3]): 102.40 ± 21.33% of progesterone induction
- Mean MBP induction (as percent of progesterone induction) (primary Schwann cells; [4]): 123.40 ± 50.34% of progesterone induction
- MBP accumulation (in words) (primary Schwann cells; 100 ng/ml): significantly induced MBP accumulation
- Mean MBP induction (as percent of progesterone induction) (primary Schwann cells; [5]): 210.60 ± 9708% of progesterone induction
- Mean MBP induction (as percent of progesterone induction) (primary Schwann cells; [6]): 170.90 ± 49.63% of progesterone induction
- Mean MBP induction (as percent of progesterone induction) (primary Schwann cells; [7]): 48.77 ± 45.44% of progesterone induction
- Mean MBP induction (as percent of progesterone induction) (primary Schwann cells; [8]): 121.00 ± 78.16% of progesterone induction
- Mean MBP induction (as percent of progesterone induction) (primary Schwann cells; [9]): 278.00 ± 95.43% of progesterone induction
- Mean MBP induction (as percent of progesterone induction) (primary Schwann cells; [10]): 280.80 ± 62.95% of progesterone induction

B2: A258 F: Solution of human Zcyto7 expressed in BHK cells, 0.603 mg/ml of PBS at pH 6.0 (protein, UniProt Q9UHF5 21-180, looked up)
Interleukin-17B: QPRSPKSKRKGQGRPGPLAPGPHQVPLDLVSRMKPYARMEEYERNIEEMVAQLRNSSELAQRKCEVNLQLWMSNKRSLSPWGYSINHDPSRIPVDLPEARCLCLGCVNPFTMQEDRSMVSVPVFSQVPVRRRLCPPPPRTGPCRQRAVMETIAVGCTCIF
- MBP Signal Density (mean ± SD) ([2]; Ascorbic acid (AA) + 1 ng/ml): 20.04 ± 8.55
- MBP Signal Density (mean ± SD) ([2]; Ascorbic acid (AA) + 10 ng/ml): 47.74 ± 23.60
- MBP Signal Density (mean ± SD) ([2]; Ascorbic acid (AA) + 100 ng/ml): 74.74 ± 19.22
- Mean MBP induction (as percent of progesterone induction) (primary Schwann cells; [3]): 81.47 ± 7.75% of progesterone induction
- Mean MBP induction (as percent of progesterone induction) (primary Schwann cells; [4]): 41.59 ± 32.29% of progesterone induction
- MBP accumulation (in words) (primary Schwann cells; 100 ng/ml): significantly induced MBP accumulation
- Mean MBP induction (as percent of progesterone induction) (primary Schwann cells; [5]): 117.00 ± 42.89% of progesterone induction
- Mean MBP induction (as percent of progesterone induction) (primary Schwann cells; [6]): 152.80 ± 27.95% of progesterone induction
- Mean MBP induction (as percent of progesterone induction) (primary Schwann cells; [7]): 117.00 ± 15.83% of progesterone induction
- Mean MBP induction (as percent of progesterone induction) (primary Schwann cells; [8]): 187.20 ± 18.43% of progesterone induction
- Mean MBP induction (as percent of progesterone induction) (primary Schwann cells; [9]): 265.90 ± 32.09% of progesterone induction
- Mean MBP induction (as percent of progesterone induction) (primary Schwann cells; [10]): 174.30 ± 25.59% of progesterone induction
- Concentration of maximal effect on MBP accumulation (primary Schwann cells; pure Schwann cell cultures): 100 ng/mL
- MBP induction (in words) (primary Schwann cells; pure Schwann cell cultures): induced MBP accumulation in dose-dependent manner

B3: A258 G: Solution of human Zcyto7 expressed in BHK cells, 0.089 mg/ml of PBS+0.1% BSA at pH 6.0 (protein, UniProt Q9UHF5 21-180, looked up)
Interleukin-17B: B2 Interleukin-17B
- MBP accumulation (in words) (primary Schwann cells; 100 ng/ml): significantly induced MBP accumulation
- Mean MBP induction (as percent of progesterone induction) (primary Schwann cells; [5]): 210 ± 115.20% of progesterone induction
- Mean MBP induction (as percent of progesterone induction) (primary Schwann cells; [9]): 152 ± 19.38% of progesterone induction
